According to publication doi:10.1101/545921 (bioRxiv, 2019):

B1: Glycolytic glyceraldehyde-3-phosphate dehydrogenase of Arabidopsis thaliana (AtGAPC1), native / reduced (enzyme, UniProt P25858 1-338, looked up)
chain: MADKKIRIGINGFGRIGRLVARVVLQRDDVELVAVNDPFITTEYMTYMFKYDSVHGQWKHNELKIKDEKTLLFGEKPVTVFGIRNPEDIPWAEAGADYVVESTGVFTDKDKAAAHLKGGAKKVVISAPSKDAPMFVVGVNEHEYKSDLDIVSNASCTTNCLAPLAKVINDRFGIVEGLMTTVHSITATQKTVDGPSMKDWRGGRAASFNIIPSSTGAAKAVGKVLPALNGKLTGMSFRVPTVDVSVVDLTVRLEKAATYDEIKKAIKEESEGKLKGILGYTEDDVVSTDFVGDNRSSIFDAKAGIALSDKFVKLVSWYDNEWGYSSRVVDLIVHMSKA
B2: IAM-pretreated AtGAPC1 WT (WT-IAM) (enzyme, Arabidopsis thaliana, UniProt P25858 1-338, looked up)
chain: B1 chain
modifications: Cys149 alkylated by iodoacetamide (IAM)
B3: H2O2-oxidized AtGAPC1 (AtGAPC1-SO2H) (enzyme, Arabidopsis thaliana, UniProt P25858 1-338, looked up)
chain: B1 chain
modifications: sulfinic acid or sulfinate (-SO2H or -SO2-) at Cys149

Molecular target: the molecule itself
Assay: dynamic light scattering

Stoichiometry N, 4:
B1
B2
B3
